Test results from publication PMC5148205.

Biological target: T1, H-NS (Shewanella oneidensis MR-1) (UniProt Q8ECJ6)
T1 sequence: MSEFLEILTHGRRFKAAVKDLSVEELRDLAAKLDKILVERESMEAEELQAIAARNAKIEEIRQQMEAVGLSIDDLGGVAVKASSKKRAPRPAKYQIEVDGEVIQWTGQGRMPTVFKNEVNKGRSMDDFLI
Experiment: EMSA
Conditions: H-NS incubated with biotin-labelled probe with or without unlabelled probe, 1 h at different temperatures; binding buffer not stated (refers to Liu et al. 2015)

GATTTTCTAGTGACAGAAGGTTTTAGCGTTGATAATGCCAAATATGCTGAATTATTTTTGAGACCGAGTAAATTTCTTAGGGGACCAAAAAAACGCATATAATACAATGGATAATGCAATTTAGGTGAGCAAAGGGGACCGTTTTTACCCCGTTTATTCATGCTTCATAACCATCTAATCTCAGGGTTGTAGACGTTTATTCACAACTCTGAGGACGATTATGAACACAACTCTCAC (double strand) [PalpA (alpA promoter)]
binding: binds

TAGCGATGAAATGGCTTTTTGGGTGGCGGTTTATCGTGATTAACGCAGAAGGTGAAGCGTGGTACATCGATGTTAAACCTGATGCCAAAGTAAAACCTGTTGGTAAAAATAAGGACGGTGCATAATGTTTCAGCAAGAAATAGAAGCTATGCAGGGTAAAGTGGTGCAGCAG (double strand) [PSO_3012 (LambdaSo excisionase promoter)]
binding: no binding
